Experimental data: publication PMC8844075, “Structural basis of neuropeptide Y signaling through Y1 receptor” (Nature Communications, 2022)

Target: Y1R-eYFP (wild-type Y1R) (human) (UniProt P25929)
Sequence (P25929 whole entry): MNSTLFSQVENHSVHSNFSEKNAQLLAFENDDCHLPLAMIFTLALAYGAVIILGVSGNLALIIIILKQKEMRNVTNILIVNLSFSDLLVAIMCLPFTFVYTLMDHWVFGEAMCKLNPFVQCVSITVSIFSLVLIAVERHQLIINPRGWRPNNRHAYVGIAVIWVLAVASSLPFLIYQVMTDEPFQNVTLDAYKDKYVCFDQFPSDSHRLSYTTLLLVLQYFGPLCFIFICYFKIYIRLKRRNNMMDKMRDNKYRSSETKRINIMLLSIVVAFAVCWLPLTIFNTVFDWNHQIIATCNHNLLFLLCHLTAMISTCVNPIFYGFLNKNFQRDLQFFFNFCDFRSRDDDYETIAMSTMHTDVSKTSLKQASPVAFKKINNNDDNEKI

peptide YY (PYY), sequence (P10082 29-64): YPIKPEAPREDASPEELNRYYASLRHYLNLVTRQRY
PYY(3–36), sequence (P10082 31-64): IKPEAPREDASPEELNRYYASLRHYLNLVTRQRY

Ca2+ signalling assay in HEK293T cells, EC50 [nM]	Substance
77	PYY(3–36) (from UniProt P10082 31-64) (peptide)
6.1	peptide YY (PYY) (from UniProt P10082 29-64)
86	NPY(3–36) (from UniProt P01303 31-64) (peptide)
